In PMC4424335 (The Journal of Biological Chemistry, 2015):
Peptide text beside a SMILES is read from it. * marks the point of attachment. Propyl(3-UDP) = O=c1ccn([C@@H]2O[C@H](COP(=O)(O)OP(=O)(O)OCCC*)[C@@H](O)[C@H]2O)c(=O)[nH]1

Legend:
[1] = target: T1, TaOGT (Trichoplax O-GlcNAc transferase) (Trichoplax adhaerens, UniProt A0A0D5X2K0); assay: fluorescence UDP-detection OGT assay, […] UDP-GlcNAc; format: biochemical
T1 construct: TaOGT, start identified by RACE, wild type, GST tag cleaved

[2] = target: TaOGA53 (Trichoplax O-GlcNAcase) (Trichoplax adhaerens, UniProt A0A0D5X1V2)
[3] = substrate: CC(=O)N[C@H]1[C@@H](OP(=O)(O)OP(=O)(O)OC[C@H]2O[C@@H](n3ccc(=O)[nH]c3=O)[C@H](O)[C@@H]2O)O[C@H](CO)[C@@H](O)[C@@H]1O; assay: steady-state kinetics (Km), fluorescence UDP-detection assay; format: biochemical, Trichoplax adhaerens
Experimental: steady-state kinetics (Km), fluorescence UDP-detection assay on TaOGT (Trichoplax O-GlcNAc transferase) | The Km for UDP-GlcNAc was measured in the presence of excess peptide substrate

[4] = substrate: CC(=O)N[C@H]1[C@H](Oc2ccc3c(C)cc(=O)oc3c2)O[C@H](CO)[C@@H](O)[C@@H]1O; assay: purified protein

With `CC(=O)N[C@H](C(=O)N[C@H](C(=O)N1CCC[C@H]1C(=O)N[C@H](C(=O)N[C@@H](COCCCOP(=O)(O)OP(=O)(O)OC[C@H]1O[C@@H](n2ccc(=O)[nH]c2=O)[C@H](O)[C@@H]1O)C(=O)N[C@H](C(=O)N[C@@H](C)C(N)=O)[C@@H](C)O)C(C)C)[C@@H](C)O)C(C)C` [Goblin 1] (Ac-VTPVS(Propyl(3-UDP))TA-NH2) as the molecule, how does the IC50 [1] read?
Its IC50 is 27 µM.

For `CCNC1=N[C@@H]2[C@@H](O)[C@H](O)[C@@H](CO)O[C@@H]2S1` [Thiamet G], which IC50 [2] is on record?
The IC50 was “c, IC50 of Thiamet G and GlcNAcstatin C for TaOGA53”.

B1: TaOGT (Trichoplax O-GlcNAc transferase) (Trichoplax adhaerens) (protein)
chain: MVDQTNGIAEIAHREYQQGNYERAEHLAMEWWRHEQDNVGVLLLLSSIHFQTRKLDKSAHFCNMAIKSNPALSEAYSNLGNVFKERNQLKEALENYRYALRLRPDFIDGYINLASALVAAQDLEGAVKAYATALQYNPNLYCVRNDLGNLLKALGRLEEAKACYLKAIETQPNFAVAWSNLGCVFNSQGEIWLAIHHFEKAVTLDNGFLDAYINLGNVLKEARIFDRASTAYLRALNLSPNNPTVLGNLACVYYEQGLMDLAVDTYKRAIELQPNFPDAYCNLANALKELGKVTEAEECYNTALSLCPTHADSLNNLANIKREKGQIGEASKLYRKALEIFPEFAAAHSNLASVLQQQGKLQEALAHYKEAIRINPSFADAYSNMGNTLKEMQDVQGAIQCYTRAIQINPNFADAHSNLASIHKDSGSIPEAIANYRTALKLKPDFPDAFCNLAHCYQIICDWADYELRMKRLVSIVQDQLEKGRLPSVHPHHTMLYPLDGHTRKAISNRHGNLCLDRTATIHKPPYKFTPNIILPNGKLKIGYVSSDFGNHPTSHLMQSIPKLHDRSRVEVYCYSLTADDGTSFRKEISRGSDHFVDLSQVQCHGDAADRINADGIHILLNMNGYTKGARNEIFALRPAPIQMMWLGYPGTSGAAFMDYIITDKITSPMEYADHYSEKLAFLPNSFFIGDHRHMFAHLSVRATDNGRDRVINLSEGSAPDLDMKDIIEAQLREALSKIDNTSSHINTSTNLISNGTLGSNAVIPNGGPIINGNGDSVPNGPGVNVPSGMVLTTRAQYGLPSKAIIYCNFNQLYKIDPKILETWVRILKRVPNSILWLLRFPAAGEAMLKNTILKMGLPADRVVFTNVAPKEEHVRRGQLADICLDTPMCNGHTTGMDVLWAGVPMITMPKETLASRVASSQLTSLGVSELIAKDLTEYEDVAVKYGSDITRLRKLQDKIWQLRHKSTLFNTKTYCQNLEELYVKVWDRYSQGLEPDHIIY
notes: TaOGT, start identified by RACE, wild type, GST tag cleaved
With B1 as the molecule, how does the Km [3] read?
Its Km is 13 ± 2 µM.

B2: TaOGA53 (Trichoplax O-GlcNAcase) (Trichoplax adhaerens) (protein)
chain: MNHNFICGVIEGFYGLPWSFTDRLDLFERLKKWGLNTYIYGPKDDYKHRSAWRDLYTETEADLFRALIKNAIVNDVIFVYAISPGNDICYSNASDIAALKDKLDQVRSFGCEAFAVFFDDIYCTMSKKDKGNFASFADAHVYIANLIYEHLNRPAVFMFCPTEYCATRAVPSVENSPYLTVIGDKLHPDVKVLWTGPDVISPFISVDSILALQEILKRKPIIWDNIHANDYDHSRIFLGPYQDRPIELAKVLSGVITNPNCEYRMNYVPIRTFSLWCQSQDKDDVQYSAESALTCAVEEWVKEFSVPSQLNIDQENIAVTMKDGIAKKDMTVTTEHLLLLIDIFYLPHKYGRHSIHLINMARWLQVNSNMITSTKETDKATSPSVKMWFQVFNEFNSLCQGILLLYDYLTMCPNQAISRELNSYIINLKKIFHILSLHINSLGTEATKHSSDATDTVDSSDAVVYGGILGEVVKIIKEGSDGDLKSSQQQVTACAIEVSLKNSDANMGADIPTNATVIG
B2 was tested. Which Km [4] did it give?
Its Km is 78 ± 5 µM.

B3: TaOGA54 (Trichoplax O-GlcNAcase) (Trichoplax adhaerens) (protein)
chain: MTSDKFLSGVVEGFYGKPWSFEQRKTLFSNMAKWGLNTYMYGPKDDEKHRAAWKQAYSKREGDSLRALIRAAEESGILFIYAISPGVDITYSSNRDMKFLKDKLDQIRNFGCNSFAIFFDDIDTVMCLQDQEEFESFAAAQVEVTNEIYKYLGMPANFLFCPTEYCAARADPNVKESKYLVTVGTGLHSDIHIMWTGPKVVSNKISVESILELQTVLRRKPVIWDNIHANDYEQGRLNLGPYDCRPAELMESLNGIFTNPNCEFELNYVPIRTFSLWCQSKRTRFNYDVEKALEQSIREWTEEFCIPRLPDGYLLEADTSDTNVNEYMDDEMQSDSRPISPANSMETDKDELTVKDIRLLVELFYLPQKHGKTANDLLAQAKWLKSNFRIAALSRKPNDTSEGSNLDEHNTDYIAAKEWDKRFSKFRSICQIIHQFGDRLMTCRNRVLLYEVYNYVADLCGILYHLISRIHSLANPEKLEKRSDSEQSSFRYGGFVGDIHRLIVSTDEYEESTLKNSDAYVIRPFMPSDEETLYDLCLKSCIENSNGDEIYKREPRIIGDRDLGAYIYLHPEYIYVLEDDRDKICGYLCGALDSKQFYERYESEWLTQIRDRHPQPENDIASWTPEEIVANSFYNFTPPTDVSVLYLSHLEARFDSSVPEKVIKRIIRFILEQLKAKGSYGASMLIDSWRTNLRRIFTSMGFVDLQEYSWMSEQKCMIAIKLM
With B3 as the molecule, how does the Km [4] read?
Its Km is 2000 ± 100 µM.
